Patent publication EP4631974A1 (Nanjing Vazyme Biotech Co., Ltd., dated 2025)

Columns and labels:
[1] = biological target: T1, RSV A2 pre-F protein (respiratory syncytial virus (RSV) A2, UniProt P03420 26-513); assay: ELISA, plate-coated RSV A2 pre-F, anti-human IgG Fc-HRP detection (2-fold dilutions from 1 ug/mL)
T1 construct: House-made by Vazyme; also called RSV 2A pre-F protein

[2] = biological target: T1, RSV A2 pre-F protein; assay: ELISA, plate-coated RSV A2 pre-F, anti-human IgG Fc-HRP detection

Binder	EC50 [1] [mg/L]	EC50 [2] [mg/L]
F6-63 (antibody, V domains shown, Human IgG1 expressed in CHO cells; heavy = VH + IgG1 constant region, light = VL + CL) VH: QVQVVESGGGVVEPGGSLSLSCAASGFSFKMHAMHWVRQAPGKGLEWVAFIPYDGSSQYYADSVKGRFTIYRDNFKNTLYLQMNSLRVEDTSLYYCARGGEEGAWSWIGYNSYMDVWGRGTAVTVSS VL: QSALTQPASVSGSPGQSITISCSGTSSDVGGYDYVCWYQKHPGESPRLIIYDVSRRPSGVSNRFSGSKSGNTASLTISGLQAEDEADYSCSSYTSSNTLIFGGGTKLTVLG	0.016	–
F6-210 (antibody, V domains shown, Human IgG1 expressed in CHO cells; heavy = VH + IgG1 constant region, light = VL + CL) VH: QERLAQSGTEVKKPGASVKVSCRALGYTFSDYSIHWVRQAPRQGLEWMGKINTSGGTTTYAQKFQARVTLTSDTSTSTASMELSSLKIEDTAVYYCVAYERATTLAGAGASDIWGQGTLVTVSS VL: DIVMTQSPLSLPVTPGEPASISCRSSQSLLHSDGYNYLDWYLQKPGQSPHLLIYLGSNRASGVPDRFSGSGSGTDFTLKITRVEPEDVGVYYCMQSLQTPFTFGPGTKVDVKR	–	0.028
